Target: EGFR (ミズーリ州セントルイス、シグマ社) (UniProt P00533)
Assay: SPR (BIACORE X), fusion protein amine-coupled to the chip, 10-100 nM EGFR in flow

Kd: 14.7 nM
B1: celB+Lama glama由来の抗EGFRのVHH抗体+Hisタグ融合タンパク質 (VHH, not shown: small tags and cut ends)
chain: QQVGTTADAHPRLTTYKCTSQNGCTRQNTSLVLDAATHFIHKKGTQTSCTNSNGLDTAICPDKQTCADNCVVDGITDYASYGVQTKNDTLTLQQYLQTGNATKSLSPRVYLLAEDGENYSMLKLLNQEFTFDVDASTLVCGMNGALYLSEMEASGGKSSLNQAGAKYGTGYCDAQCYTTPWINGEGNTESVGSCCQEMDIWEANARATGLTPHPCNTTGLYECSGSGCGDSGVCDKAGCGFNPYGLGAKDYYGYGLKVNTNETFTVVTQFLTNDNTTSGQLSEIRRLYIQNGQVIQNAAVTSGGKTVDSITKDFCSGEGSAFNRLGGLEEMGHALGRGMVLALSIWNDAGSFMQWLDGGSAGPCNATEGNPALIEKLYPDTHVKFSKIRWGDIGSTYRHQVQLVESGGGLVQAGDSLRLSCVDSGRDFSDYVMGWFRQAPGKEREFVAAISRNGITTRYADSVKGRFTISRDNDKNTVYLQMNSLKPEDTAVYYCATNSAGTYVSPRSRDYDGWGQGTQVTVSS

From patent JP2012157315A
